Key:
actin = conditions: Shu et al.; cited from earlier work
[1] = system: DNA (salmon sperm DNA from Sigma); assay: Effect of K+ and Mg2+ on DNAse activity: decrease in viscosity of a standardised DNA digest (capillary viscosimeter); type: biochemical
Protocol: The viscosity of DNA and DNA/actin solutions was measured with a calibrated capillary viscosimeter (Schott Geräte, Hofheim, Germany) equipped with an automated apparatus (Lauda, Köningshofen, Germany). The capillary viscosimeter was placed in a water bath (20.00° C.±0.05° C.) and the outflow times (t in s) were determined automatically. The viscosity (η) of the solutions is related to t by: [formula] where k and B are known constants. The effect of Mg^2+ and K^+ ions on the activity of DNAse (measured as decrease in viscosity) was determined by changing the Mg^2+ and K^+ concentration in a standardised DNA digest. DNA (salmon sperm DNA from Sigma) was digested (10 μ[…], 2,3 mg/ml DNA, 70 mM NaCl, and 3 mM CaCl2, pH 7.0) in order to determine the change in viscosity of the DNA solution.

[2] = system: DNA in the presence of rabbit skeletal actin; assay: Influence of actin polymerisation on DNAse activity: decrease in viscosity of DNA/actin solutions; type: biochemical
Protocol: The viscosity of DNA and DNA/actin solutions was measured with a calibrated capillary viscosimeter (Schott Geräte, Hofheim, Germany) equipped with an automated apparatus (Lauda, Köningshofen, Germany). The capillary viscosimeter was placed in a water bath (20.00° C.±0.05° C.) and the outflow times (t in s) were determined automatically. The viscosity (η) of the solutions is related to t by: […] Biol. Chem. (1971) 246: 4866-4871) (6,4 μg/ml […], 1.5 mg DNA/ml and 1.1 mg actin/ml 70 mM NaCl, 3 mM CaCl2, 0.35 mM ATP, 3.2 mM TRIS/HCl, 0.13 mM DTT, and 0.006% NaN3, pH 7,0). K^+ and Mg^2+ were supplied as K2HPO4 and MgCl2 respectively.

[3] = DNA/actin solution 1: K+ 14.0 mM, Mg2+ 0.90 mM
[4] = DNA/actin solution 2: K+ 26.0 mM, Mg2+ 0.90 mM
[5] = DNA/actin solution 3: K+ 26.0 mM, Mg2+ 2.70 mM

In the case of `[Cl-].[Cl-].[Mg+2]` [Mg^2+, magnesium chloride], the “concentration giving maximal actin polymerisation” value (actin) is given as 2 mM.

In the case of `O=P([O-])([O-])O.[K+].[K+]` [K+, potassium hydrogenophosphate], the “concentration giving maximal actin polymerisation” value (actin) is listed as 200 mM.

B1: rhDNAse I: Recombinant human DNAse I, commercially available under the trade name Pulmozyme, also designated dornase alpha (protein, UniProt P24855 23-282, looked up)
Deoxyribonuclease-1: LKIAAFNIQTFGETKMSNATLVSYIVQILSRYDIALVQEVRDSHLTAVGKLLDNLNQDAPDTYHYVVSEPLGRNSYKERYLFVYRPDQVSAVDSYYYDDGCEPCGNDTFNREPAIVRFFSRFTEVREFAIVPLHAAPGDAVAEIDALYDVYLDVQEKWGLEDVMLMGDFNAGCSYVRPSQWSSIRLWTSPTFQWLIPDSADTTATPTHCAYDRIVVAGMLLRGAVVPDSALPFNFQAAYGLSDQLAQAISDHYPVEVMLK
modifications: dornase alfa
notes: Recombinant human DNAse I, commercially available under the trade name Pulmozyme, also designated dornase alpha
With B1 the “decrease in viscosity at t = 10 minutes” value ([1]; DNA solution 1: K+ 14.0 mM, Mg2+ 1.65 mM) was 97%, the “η at t = 10 minutes” value ([1]; DNA solution 1: K+ 14.0 mM, Mg2+ 1.65 mM, η 31.5 at t = 0) was 1.1 mm^2/s and the “decrease in viscosity at t = 10 minutes” value ([1]; DNA solution 2: K+ 26.0 mM, Mg2+ 1.65 mM) was 97%. For the same molecule, the “η at t = 10 minutes” value ([1]; DNA solution 2: K+ 26.0 mM, Mg2+ 1.65 mM, η 31.5 at t = 0) was 1.1 mm^2/s, the “decrease in viscosity at t = 10 minutes” value ([1]; DNA solution 3: K+ 20.0 mM, Mg2+ 0.90 mM) was 97% and the “η at t = 10 minutes” value ([1]; DNA solution 3: K+ 20.0 mM, Mg2+ 0.90 mM, η 33.9 at t = 0) was 1.1 mm^2/s. For the same molecule, the “decrease in viscosity at t = 10 minutes” value ([1]; DNA solution 4: K+ 20.0 mM, Mg2+ 2.70 mM) was 97%, the “η at t = 10 minutes” value ([1]; DNA solution 4: K+ 20.0 mM, Mg2+ 2.70 mM, η 33.9 at t = 0) was 1.1 mm^2/s and the “viscosity η of the DNA solution after digestion” value ([1]; all tested K+ and Mg2+ concentrations, value is near the viscosity of water) was roughly 1 mm^2/s. The “decrease in viscosity at t = 10 min” value [2, 3] was 32%, the “decrease in viscosity at t = 20 min” value [2, 3] was 34% and the “decrease in viscosity at t = 30 min” value [2, 3] was 40%. The “η at t = 20 min” value [2, 3] was 9.4 mm2/s, the “η at t = 30 min” value [2, 3] was 8.6 mm2/s and the “η at t = 10 min” value ([2]; DNA/actin solution 1: K+ 14.0 mM, Mg2+ 0.90 mM, η 14.3 at t = 0) was 9.8 mm2/s. The “decrease in viscosity at t = 30 min” value [2, 4] was 46%, the “η at t = 30 min” value [2, 4] was 7.7 mm2/s and the “decrease in viscosity at t = 10 min” value [2, 5] was 58%. The “decrease in viscosity at t = 20 min” value [2, 5] was 59%, the “decrease in viscosity at t = 30 min” value [2, 5] was 61% and the “η at t = 10 min” value [2, 5] was 6.1 mm2/s. For the same molecule, the “η at t = 20 min” value [2, 5] was 5.8 mm2/s, the “η at t = 30 min” value [2, 5] was 5.5 mm2/s and the “DNAse activity in DNA/actin solutions” value ([2]; at high levels of Mg^2+ and K^+) was “highest”.
